Target: T1, human recombinant netrin‐1, on AHC biosensors (human, UniProt O95631 25-604)
T1 construct: netrin-1, human, recombinant; AHC sensors capture human IgG Fc, so an Fc-tagged netrin-1 is surmised; Capture through a human antibody cannot be excluded; It may otherwise be the same protein as m1; also called h‐netrin‐1
Experiment: BLI; netrin-1 on AHC biosensors; analytes at 3.12-100 nM; 30°C, 1,000 rpm; PBS, 0.02% Tween-20, 0.1% BSA; 5 min association, 5 min dissociation
Conditions: both partners purified

Row | Binder | Kd [nM]
1 | recombinant human lumican (natural protein, UniProt P51884 19-338, looked up, lumican, human, recombinant; also called hLumican) QYYDYDFPLSIYGQSSPNCAPECNCPESYPSAMYCDELKLKSVPMVPPGIKYLYLRNNQIDHIDEKAFENVTDLQWLILDHNLLENSKIKGRVFSKLKQLKKLHINHNNLTESVGPLPKSLEDLQLTHNKITKLGSFEGLVNLTFIHLQHNRLKEDAVSAAFKGLKSLEYLDLSFNQIARLPSGLPVSLLTLYLDNNKISNIPDEYFKRFNALQYLRLSHNELADSGIPGNSFNVSSLVELDLSYNKLKNIPTVNENLENYYLEVNQLEKFDIKSFCKILGPLSYSKIKHLRLDGNRISETSLPPDMYECLRVANEVTLN | 15.5
2 | fibronectin leucine‐rich transmembrane protein (FLRT1), recombinant human (natural protein, UniProt Q9NZU1 49-552, looked up, FLRT1 (fibronectin leucine-rich transmembrane protein 1), human, recombinant; also called hFLRT‐1; FLTR1) IDSTTCPSVCRCDNGFIYCNDRGLTSIPADIPDDATTLYLQNNQINNAGIPQDLKTKVNVQVIYLYENDLDEFPINLPRSLRELHLQDNNVRTIARDSLARIPLLEKLHLDDNSVSTVSIEEDAFADSKQLKLLFLSRNHLSSIPSGLPHTLEELRLDDNRISTIPLHAFKGLNSLRRLVLDGNLLANQRIADDTFSRLQNLTELSLVRNSLAAPPLNLPSAHLQKLYLQDNAISHIPYNTLAKMRELERLDLSNNNLTTLPRGLFDDLGNLAQLLLRNNPWFCGCNLMWLRDWVKARAAVVNVRGLMCQGPEKVRGMAIKDITSEMDECFETGPQGGVANAAAKTTASNHASATTPQGSLFTLKAKRPGLRLPDSNIDYPMATGDGAKTLAIHVKALTADSIRITWKATLPASSFRLSWLRLGHSPAVGSITETLVQGDKTEYLLTALEPKSTYIICMVTMETSNAYVADETPVCAKAETADSYGPTTTLNQEQNAGPMASLP | 15.5
3 | recombinant human glypican‐1 (natural protein, UniProt P35052 24-530, looked up, glypican-1, human, recombinant; also called hGlypican‐1) DPASKSRSCGEVRQIYGAKGFSLSDVPQAEISGEHLRICPQGYTCCTSEMEENLANRSHAELETALRDSSRVLQAMLATQLRSFDDHFQHLLNDSERTLQATFPGAFGELYTQNARAFRDLYSELRLYYRGANLHLEETLAEFWARLLERLFKQLHPQLLLPDDYLDCLGKQAEALRPFGEAPRELRLRATRAFVAARSFVQGLGVASDVVRKVAQVPLGPECSRAVMKLVYCAHCLGVPGARPCPDYCRNVLKGCLANQADLDAEWRNLLDSMVLITDKFWGTSGVESVIGSVHTWLAEAINALQDNRDTLTAKVIQGCGNPKVNPQGPGPEEKRRRGKLAPRERPPSGTLEKLVSEAKAQLRDVQDFWISLPGTLCSEKMALSTASDDRCWNGMARGRYLPEVMGDGLANQINNPEVEVDITKPDMTIRQQIMQLKIMTNRLRSAYNGNDVDFQDASDDGSGSGSGDGCLDDLCSRKVSRKSSSSRTPLTHALPGLSEQEGQKTS | 15.6

The next binders have a lower Kd than those just listed; values first:

Row | Kd [nM] | Binder
4 | 0.96 | recombinant human integrin α6β4 (complex, integrin alpha-6, human, recombinant; integrin beta-4, human, recombinant; also called hIntegrin) chain 1: FNLDTREDNVIRKYGDPGSLFGFSLAMHWQLQPEDKRLLLVGAPRAEALPLQRANRTGGLYSCDITARGPCTRIEFDNDADPTSESKEDQWMGVTVQSQGPGGKVVTCAHRYEKRQHVNTKQESRDIFGRCYVLSQNLRIEDDMDGGDWSFCDGRLRGHEKFGSCQQGVAATFTKDFHYIVFGAPGTYNWKGIVRVEQKNNTFFDMNIFEDGPYEVGGETEHDESLVPVPANSYLGLLFLTSVSYTDPDQFVYKTRPPREQPDTFPDVMMNSYLGFSLDSGKGIVSKDEITFVSGAPRANHSGAVVLLKRDMKSAHLLPEHIFDGEGLASSFGYDVAVVDLNKDGWQDIVIGAPQYFDRDGEVGGAVYVYMNQQGRWNNVKPIRLNGTKDSMFGIAVKNIGDINQDGYPDIAVGAPYDDLGKVFIYHGSANGINTKPTQVLKGISPYFGYSIAGNMDLDRNSYPDVAVGSLSDSVTIFRSRPVINIQKTITVTPNRIDLRQKTACGAPSGICLQVKSCFEYTANPAGYNPSISIVGTLEAEKERRKSGLSSRVQFRNQGSEPKYTQELTLKRQKQKVCMEETLWLQDNIRDKLRPIPITASVEIQEPSSRRRVNSLPEVLPILNSDEPKTAHIDVHFLKEGCGDDNVCNSNLKLEYKFCTREGNQDKFSYLPIQKGVPELVLKDQKDIALEITVTNSPSNPRNPTKDGDDAHEAKLIATFPDTLTYSAYRELRAFPEKQLSCVANQNGSQADCELGNPFKRNSNVTFYLVLSTTEVTFDTPDLDINLKLETTSNQDNLAPITAKAKVVIELLLSVSGVAKPSQVYFGGTVVGEQAMKSEDEVGSLIEYEFRVINLGKPLTNLGTATLNIQWPKEISNGKWLLYLVKVESKGLEKVTCEPQKEINSLNLTESHNSRKKREITEKQIDDNRKFSLFAERKYQTLNCSVNVNCVNIRCPLRGLDSKASLILRSRLWNSTFLEEYSKLNYLDILMRAFIDVTAAAENIRLPNAGTQVRVTVFPSKTVAQYS chain 2: NRCKKAPVKSCTECVRVDKDCAYCTDEMFRDRRCNTQAELLAAGCQRESIVVMESSFQITEETQIDTTLRRSQMSPQGLRVRLRPGEERHFELEVFEPLESPVDLYILMDFSNSMSDDLDNLKKMGQNLARVLSQLTSDYTIGFGKFVDKVSVPQTDMRPEKLKEPWPNSDPPFSFKNVISLTEDVDEFRNKLQGERISGNLDAPEGGFDAILQTAVCTRDIGWRPDSTHLLVFSTESAFHYEADGANVLAGIMSRNDERCHLDTTGTYTQYRTQDYPSVPTLVRLLAKHNIIPIFAVTNYSYSYYEKLHTYFPVSSLGVLQEDSSNIVELLEEAFNRIRSNLDIRALDSPRGLRTEVTSKMFQKTRTGSFHIRRGEVGIYQVQLRALEHVDGTHVCQLPEDQKGNIHLKPSFSDGLKMDAGIICDVCTCELQKEVRSARCSFNGDFVCGQCVCSEGWSGQTCNCSTGSLSDIQPCLREGEDKPCSGRGECQCGHCVCYGEGRYEGQFCEYDNFQCPRTSGFLCNDRGRCSMGQCVCEPGWTGPSCDCPLSNATCIDSNGGICNGRGHCECGRCHCHQQSLYTDTICEINYSAIHPGLCEDLRSCVQCQAWGTGEKKGRTCEECNFKVKMVDELKRAEEVVVRCSFRDEDDDCTYSYTMEGDGAPGPNSTVLVHKKKDCPPGS
5 | 6.85 | recombinant human vitronectin (natural protein, UniProt P04004 20-478, looked up, vitronectin, human, recombinant; also called hVitronectin) DQESCKGRCTEGFNVDKKCQCDELCSYYQSCCTDYTAECKPQVTRGDVFTMPEDEYTVYDDGEEKNNATVHEQVGGPSLTSDLQAQSKGNPEQTPVLKPEEEAPAPEVGASKPEGIDSRPETLHPGRPQPPAEEELCSGKPFDAFTDLKNGSLFAFRGQYCYELDEKAVRPGYPKLIRDVWGIEGPIDAAFTRINCQGKTYLFKGSQYWRFEDGVLDPDYPRNISDGFDGIPDNVDAALALPAHSYSGRERVYFFKGKQYWEYQFQHQPSQEECEGSSLSAVFEHFAMMQRDSWEDIFELLFWGRTSAGTRQPQFISRDWHGVPGQVDAAMAGRIYISGMAPRPSLAKKQRFRHRNRKGYRSQRGHSRGRNQNSRRPSRATWLSLFSSEESNLGANNYDDYRMDWLVPATCEPIQSVFFFSGDKYYRVNLRTRRVDTVDPPYPRSIAQYWLGCPAPGHL

— article PMC10086585, “From netrin‐1‐targeted SPECT/CT to internal radiotherapy for management of advanced solid tumors” (EMBO Molecular Medicine, 2023)
